How the values were obtained:
SKP2 = SKP2 (UniProt Q13309); experiment: anti-Flag co-IP, immunoblot; conditions: reference: wild type; sites S121
[1] = biological target: T1, Flag-SKP2 (Flag-tagged S phase kinase-associated protein 2) (UniProt Q13309 1-424); experiment: pull-down; in vitro GST pulldown; GST-AES fragments and CK1ε-His purified from E. coli, Flag-SKP2 purified from HEK293T cells; with 1 mM ATP; Flag-SKP2 detected with anti-SKP2 antibody; conditions: both partners purified
T1 construct: S phase kinase-associated protein 2 (SKP2); source: HEK293T, transfected, in lysate; also purified from HEK293T cells transfected with the Flag-SKP2 plasmid
T1 sequence (Q13309 whole entry, the tested form may be a part): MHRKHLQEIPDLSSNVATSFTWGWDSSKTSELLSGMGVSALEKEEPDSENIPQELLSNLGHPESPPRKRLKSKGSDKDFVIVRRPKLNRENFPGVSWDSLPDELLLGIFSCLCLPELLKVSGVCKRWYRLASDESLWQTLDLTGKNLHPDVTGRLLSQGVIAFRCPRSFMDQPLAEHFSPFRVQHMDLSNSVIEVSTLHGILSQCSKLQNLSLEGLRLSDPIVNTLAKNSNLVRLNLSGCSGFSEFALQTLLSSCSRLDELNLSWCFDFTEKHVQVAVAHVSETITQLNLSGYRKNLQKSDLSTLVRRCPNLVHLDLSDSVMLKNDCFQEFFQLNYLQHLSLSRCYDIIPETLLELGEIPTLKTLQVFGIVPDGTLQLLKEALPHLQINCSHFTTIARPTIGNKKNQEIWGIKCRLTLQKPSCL

Row | binding against the reference (SKP2) | Molecule | binding result [1]
1 | lost | AES (amino-terminal enhancer of split) (from UniProt Q08117) S121A | 
2 |  | GST-AES, full length, phosphorylated by CK1ε-His (natural protein, human, UniProt Q08117 1-197, looked up, phosphorylated in vitro by CK1ε-His with 1 mM ATP; the paper maps the CK1δ/ε site to Ser121, Amino-terminal enhancer of split (AES), human, full length; Same chain as m14, after the kinase reaction in the pull-down; also called full-length AES (with CK1ε-His and ATP); source: E. coli, purified; incubated with CK1ε-His and 1 mM ATP; not shown: GST, N-terminal, kept) MMFPQSRHSGSSHLPQQLKFTTSDSCDRIKDEFQLLQAQYHSLKLECDKLASEKSEMQRHYVMYYEMSYGLNIEMHKQAEIVKRLNGICAQVLPYLSQEHQQQVLGAIERAKQVTAPELNSIIRQQLQAHQLSQLQALALPLTPLPVGLQPPSLPAVSAGTGLLSLSALGSQAHLSKEDKNGHDGDTHQEDDGEKSD | binds

Source: article PMC7977458, “The CK1δ/ε-AES axis regulates tumorigenesis and metastasis in colorectal cancer” (Theranostics, 2021)
